# Laboratory results taken from the nanobody polyreactivity screen of Harvey et al. (2022).
# Experiment: yeast display, Sf9 membrane polyspecificity reagent, FACS + sequencing; frameworks hold sequencing errors
# In short: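 Genes from sorted yeast were amplified by colony PCR, read by MiSeq 2 × 250 sequencing and filtered on CDR length. These cells carried a synthetic nanobody library in Saccharomyces cerevisiae BJ5465 and were sorted by FACS into low and high (top ~1%) gates on anti-HA and streptavidin fluorescence. Polyreactivity is labelled according to the gate of origin.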
row,Sequence,polyreactivity (PSR sort gate)
1,QVQLVESGGGLVQAGGSLRLSCAASGRTFKRYAMGWYRQAPGKERELVAAISWSGTSTHYADSVKGRFTISRDNAKNTVYLQMNSLKPEDTAVYYCAARRYPVLNYDYWGQGTQVNVSS,high polyreactivity
2,QVQLVESGGGLVQAGGSLRLSCAASGFTFVRNVMGWYRQAPGKERELVAAINTGGTTDYADSVKGRFTISRDNAKNTVYLQMNSLKPEDTAVYYCNADYDSQYHYLLRYDYWGQGTQVTVSS,low polyreactivity
3,QVHLVESGGGLVQAGGSLRLSCAASGNIFYPNAMGWYRQAPGKERELVAAISSSGGSTYYADSVKGRFTISRDNAKNTVYLQMNSLKPEDTAVYYCNAYRQYRYDYWGQGTQVTVSS,low polyreactivity
4,QGQLVDSGGGLVQAGGSLRLICAASGYIFRLYAMGWYRHAPGKERELVAAISRRGGSTYYADSVKGRFTISRDNAKITVYLQMNSLKPEDTAVYYGATDHSYIDDYWGQGTQVTVSS,high polyreactivity
5,QVQLVESGGGLVQAGGSLRLSCAASGFIFTQYAMGWYRQSPGKERELVAGITSSGNTYYADSVKGRFTISRDNAKNTVYLQMNSLKPEDTAVYYCAARSYVRRFDGGYWGQGTQVTVSS,high polyreactivity
6,QVQLVESGGGLVQAGGSLRLSCAASGFTFGRYTMGWYRQAPGKERELVAAISWSGGSTYYADSVKGRFTISRDNAKNTVYLQMNSLKPEDTAVYYCAKVFRGGRGDYWGQGTQVTVSS,high polyreactivity
7,QVHLVESGGGLVQAGGSLRLRCAASGFILGAYAMGWYRQAPGKERELDAAISYSGGRTYYADSVKGRFTISRDNAKNTVYLQMNSQNPEDTAVYYCAADWYYGYFFSVAGEHEYCGQGTQVTVSS,high polyreactivity
8,QVQLVESGGGLVQAGGSLRLSCAASGSTFDINAMGWYRQAPGKERELVASITFCGGSTYYADSVKGRFTISRDNAKNTVYLEMNSLKPEDTAVYYCAADSSGEYPGGYWGQGTQVTVSS,low polyreactivity
9,QVQLVESGGGLVQAGGSLRLSCAASGRTFRSYAMGWYRQAPGKERELVAAITSGGSTYYADSVKGRFTISRDNAKNTVYLQMNSLKPEDTAVYYCARGDHVGSAGYDYWGQGTQVTVSS,low polyreactivity
10,QVQLVESGGGLVQAGGSLRLSCAASGLIFYPYAMGWYRQAPGKERELVAAITSGDSTYYADSVKGRFTISRDNAKNTVYLQMNSLKPEDTAVYYCNADASYYYYHSDTVYGFDYWGQGTQVTVSS,low polyreactivity
11,QVHLVETGGGLVQAGGSLRLSCAASGITFDQYAMGWYRQAPGKERELVAAITGSGGNTYYADSVKGRFTISRDNAKNTVYLQMNSLKPEDTAVYSCGAAVGRARDYWGQGTQVTVSS,low polyreactivity
12,QVQLVESGGGLVQAGGSLRLSCSASGRIFPRNAMGWYRQAPGKERHLVAAISQSGTSTYYADSVKGRFTISRDNAQKTVYLQMNSLKREDTAVYYCAASGWDHVIVEYDYWGEGTQVTVSS,low polyreactivity
13,QVQLVESGGGLVQAGGSLRLSCAASGSIFDTYAMGWYRQAPGKERELVAAITQSGDRTYYADSVKGRFTISRDNAKNTVYLQMNSLKPEDTAVYYCYTRRGSAWSCDYWGQGTQVTVSS,low polyreactivity
14,QVQLVESGGGLVQAGGSLRLSCAASGSIFYPYAMGWYRQAPGKERELVARISSAGGTYYADSVKGRFTISRDNAKNTVYLQMNSLKPEDTAVYYCAAQARYRYYYWGQGTQVTVSS,high polyreactivity
15,QVQLVESGGGLVQAGGSLRLSCAASGSIFRQYAMGWYRQAPGKERELVAAISRGGITYYADSVKGRFTISRDNAKNTVYLQMNSLKPEDTAVYYCAARYGRGERGGFYWGQGTQVTVSS,high polyreactivity
16,QVQLVDSGGGLVQAGGSLRLSCAASGRTFRLNDMGWYRQAPGKDRELVAAITRSGGSTYYADSVKGRFTISRDNAKNTVYFQMNSLKPEDTAVYYCNAVRSRYYDDYDYWGQGTQVTVSS,high polyreactivity
17,QVQLVESGGGLVQAGGSLRLSCAASGRILHIYAMGWYRQAPGKERELVAAISWIGTSTYYADSVKGRFTISRDNAMNTVFLQMNSLKPEDTAVYYCAATGPRMYYWGQGTQVTVSS,high polyreactivity
18,QVQLVESGGGLVQAGGSLRLICAASGRIFDDNAMGWYRQAPGKERELVATISSTGGRTYYADSVKGRFTISRDNAKNTVYLQMNSLKPEDTAVYYCAARRRQGGYYYWGQGTQVTVSS,high polyreactivity
19,QVQLVESCGGLVQAGGSLRLSCAASGRTFVTYAMGWYRQAPGKERELVAAISASGGSTYYADSVKGRFTISRDNAKNTVYFQMNSLKPEDTAVYYCAKTYFLATPYGYWGQGTQVTVSS,low polyreactivity
20,QVQLVESGGGLVQAGGSLRLSCAASGSTFYYYGMGWYRQAPGKERELVATISGSGGSTYYADSVKGRFTITRDNAKNTVYLQMNSLTQEDTSVYYCNKDVLPSQTYSNVYWGQGTQVSVSS,low polyreactivity
21,QVQLVESGGGLVQAGGSLRLSCGASGIIFLVNAMGWYRQAPGRERELVATITSGGSTYADSVKGRFTISRDNAKNTVYLQMNSLKPEDTAVYYCAAVRRRRNSYGYWGQGTQVTVSS,high polyreactivity
22,QVQLVESGGGLVQAGGSLRLSCAASGSTFDTNAMGWYRQAPGKERELVAAISASGGSTYYADSVKGRFTISRDNAKNTVYLQMNSLKPEDTAVYYCAATSGRAFKYDYWGQGTQVTVSS,high polyreactivity

row,Sequence,polyreactivity (PSR sort gate)
1,QVQLVESGGGLVQAGGSPRLSCAASGFTFGHYAMGWYREAPGKERELVAAISIDGGRTYYADSVKGRFTISRDNAKNSVYLQMNSLKPEDTAVYYCAVPRWFYYYWGQGTQVTVSS,high polyreactivity
2,QVQLVESGGGLVQAGGSLRLSCAASGSTFSLYAMGWSRQAPGKERELVAAISRSGGRTYYADSVKGRFTISRDNAKNTVYLQMNSLKPEDTAVYYCAADSTSGYYWGQGTQVTVSS,high polyreactivity
3,QVQLVESGGGLVQAGGSLRLSCAASGRTFRSYAMGWYRQAPGKERELVAGISYNGGSTYYADSVKGRFTISRDNAKNTVYLQMNSLKPEDTAVYYCAATDHYRLYDYWGLGTQVTVSS,low polyreactivity
4,QVQLVESGGGLVQAGGSLRLSCAASGSILRQYAMGWYRQAPGKERELVATITGDGSTNYADSVKGRFTISRDNAKNTVYLQMNSLKPEDTAVYYCAADQTYTYEYWGQGTQVTVSS,low polyreactivity
5,QVQLVESGGGLVQAGGSLRLSCAASGRIFGWNAMGWYRQAPGKERELVATITDGTSTNYADSVKGRFTISRDNAKNTVYLQMYSLKPVDTAVYYCAKRVVTSLYKPDGVKYDYWGQGTQVTVSS,high polyreactivity
6,QVQLVESGGGLVQAGGSLRLSCAASGYIFPYYTMGWYRQAPGKERELVAAITIGGSTYYADSVKGRFTISRDNAKNTVYLKMNSLKPEDTAVYYCAAKYYDYLYRYIMEYWGQGTQVTVSS,low polyreactivity
7,QVQLVESGGGLVQAGGSLRLSCAASGGIFGLYTMGWYRQAPGKERELVAAISKTGGSTYYADSVKGRFTISRDNAKNTVYLQMNSLNPEDTAVYYCAADGPYDDYEYWGQGTQVTVSS,high polyreactivity
8,QVQLVESGGGLVQAGGSLRLSCAASGSTFGWYVMGWYRQAPGKERELVAAISQRGGRTYYADSVKGRFSISRDNAKNTVYLQMNSLKPEDTAVYYCAAPGVRVGPTFPRQGYDYWGQGTQVTVSS,high polyreactivity
9,QVQLVESGGGLVQAGGSLRLSCAASGLIFPYYAMGWNRQAPGKESELVAASSGSGGRTYYADSVKGRFTISRDNAKITVYLQMNSRKPEDTAVYYCAAAVLDSYTRYIWYIYDYWGQGTQVTVSS,high polyreactivity
10,QVQLVESGGGLVQAGGSLRLSCAASGITFWSYAMGWYRQAPGKERELVAAITWRGGSTYYADSVKGRFTISRDNAKNTVYLQMNSLKPEDTAVYYCNAVYRRDGYNYWGQGTQVTVSS,high polyreactivity
11,QDQLVESGGGLVQAGGSLRLSCAASGRIFFTNAMGWYRQAPGKERELVASIDDTGSTNYADSVKGRFTISRDNAKNTVYLQMNSLKPEDTATSTQGDYWGQGTQVTVSS,low polyreactivity
12,QVQLVESGGGLVQAGGSLRLSCAASGITFPDNAMGWSRQAPGKERELVAAITYSGGSTYYADSVKGRFTISRDNAKNTVYLQMNSLKPEDTAVYYCAADWYWSSSYSDWEDYWGQGTQVTVSS,low polyreactivity
13,QVQLVESGGGFVQAGGSLRLSCAAYGSISVGYTMGWYIQAPGKEREFVAVITGTGGRTRYADSVKGRFTISRDNAKNTVYLQMNSLKPEDTAVYYCAAKIRWRGALYDYWGQGTQVTVSS,high polyreactivity
14,QVQLVESGGGLVQAGGSLRLSRASSGVISYRNAMGWYRKAPGKERQLVASITSSGGRTYYADSVKGRFTISRDYATNSVFLQMNSLKPEDTAVYYCADDNWYKKLKRPSAYDYWGQGTQVTVSS,high polyreactivity
15,QVQLVESGGGLVQAGGSLRLSCAASGSTFWPYAMGWYRQAPGKERELVARINSGGNTNYADSVKGRFTISRDNAKNTVYLQMNSLKPEDTAVYYCAVRSLYEPRVYYRWVVGDGNYWGQGTQLTVSS,low polyreactivity
16,QVQLVESGGGLVQAGGSLRLSCAASGFTFRTYAMGWSRQAPGKERELVAAITVSGGTYYADSVKGRFTISRDNAKNTVYLQMNSLKPEDTAVYYCAAGYWNDFDWGQGTQVTVSS,low polyreactivity
17,KVQLVESGGGLVQAGGSLRFSCAASGSTFYIYAMGWYRPAPGKERELVATISSTGSTHYADSVKGRFTLSRDNAKNTVYLQMISLKPEDTAVYYCNPVYFGRYSRRDHWGQGTQVTVSS,high polyreactivity
18,QVQLVESGGRLVQAGGRLRLSCAASGSIFMKNAMGWYRPAHGKERELVADITRSGDRTYYADSVKGRFTISRDNAKNTVYLQMNSLKPEDTAVYYCAKYYVWPRYGYSGQGTQVTVSS,high polyreactivity
19,QVQLVESGGGLVQAGGSLRLNCAASGSIFGQYTMGWYRQAPGKERELVADITSGGSTYYADSVKGRFTISRDNAKNTVYLQMNSLKPEDPAVYYCAAVDWKAHWEMGYWGQGTQVTVSS,low polyreactivity
20,QVQLVASGGALVQAGGSLRLSCAASGFIFDYYAMGRYRPAPGKERELVAAITSRSGSTYYADSVKGRFTISRDNAKNTVYLQMNSLKPEDTAVYYCARRFKYGSTAWRFYYWGQGTQVTVSS,high polyreactivity
21,QVQLVESGGGLVQAGGSLPLSCAASGRTFHYNAMGWYRQAPGKERDLFAAISRDGGSTDYADSVKGRFTISSDNAKNTVYLQMNSLKPEDTAVYYCAAPIGKQEFSRDYDYWGQGTQVTVSS,low polyreactivity
